{"source": "paper PMC12900691", "about": "(2025)", "binders": {"B1": {"name": "ATRX ADD (protein)", "chain": "NLKKRGEDGLHGIVSCTACGQQVNHFQKDSIYRHPSLQVLICKNCFKYYMSDDISRDSDGMDEQCRWCAEGGNLICCDFCHNAFCKKCILRNLGRKELSTIMDENNQWYCYICHPEPLLDLVTACNSVFENLEQLLQQNKKKIK"}}, "key": {"CHD4 ABM": {"molecular_target": "CHD4 ABM (Homo sapiens, UniProt Q14839)", "sequence (Q14839 100-140)": "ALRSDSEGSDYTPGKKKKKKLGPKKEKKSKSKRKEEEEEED", "assay": "ITC"}, "[1]": {"molecular_target": "T1, histone H3K9me3 peptide H3K9me3 peptide (Homo sapiens, UniProt P68431, K9me3)", "T1 chain": "ARTKQTARKSTGGKA", "assay": "ITC"}}, "data": [{"binder": "B1", "values": [{"measurement": "Kd", "setting": "CHD4 ABM", "value": "~46", "unit": "µM"}, {"measurement": "Kd", "setting": "[1]", "value": "~4", "unit": "µM"}]}]}
